Results: the supplement of paper PMC9112550, “Optimization of the antimicrobial peptide Bac7 by deep mutational scanning” (BMC Biology, 2022)

Test system: Escherichia coli TOP10
Test: shrunken log2 fold change of peptide-encoding DNA abundance (4.5 h post-induction vs induction); higher = less antimicrobial activity (less host growth inhibition)
Conditions: time post-induction: 4.5 h; library: site-saturation at positions 5, 18, 19, 20
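Also: peptides expressed intracellularly from a pBAD plasmid library in pooled LB shake-flask culture, induced with 0.3% L-arabinose, DNA abundance read by NGS, three biological replicates, DESeq2 with apeglm shrinkage.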

Row | Sequence | shrunken log2 fold change
1 | RRIRKRPPRLPRPRPRPHWRPRP | 0.3
2 | RRIRRRPPRLPRPRPRPQLVPRP | 0.0448
3 | RRIRRRPPRLPRPRPRPDHCPRP | -0.0402
4 | RRIRDRPPRLPRPRPRPGRKPRP | 0.0333
5 | RRIRDRPPRLPRPRPRPQLQPRP | -0.16
6 | RRIRKRPPRLPRPRPRPSKYPRP | -0.00772
7 | RRIRARPPRLPRPRPRPRQKPRP | 0.055
8 | RRIRQRPPRLPRPRPRPKIWPRP | 0.362
9 | RRIRCRPPRLPRPRPRPTIQPRP | -0.508
10 | RRIRARPPRLPRPRPRPKETPRP | 0.229
11 | RRIRKRPPRLPRPRPRPWYQPRP | 0.218
12 | RRIRGRPPRLPRPRPRPDPYPRP | -0.0305
13 | RRIRRRPPRLPRPRPRPDWSPRP | 0.182
14 | RRIRQRPPRLPRPRPRPAARPRP | 0.246
15 | RRIRGRPPRLPRPRPRPKMIPRP | 0.425
16 | RRIRNRPPRLPRPRPRPWSQPRP | -0.0539
17 | RRIRNRPPRLPRPRPRPDDQPRP | 0.0463
18 | RRIRRRPPRLPRPRPRPRHHPRP | 0.0826
19 | RRIRSRPPRLPRPRPRPETCPRP | 0.152
20 | RRIRSRPPRLPRPRPRPQNNPRP | -0.573
21 | RRIRRRPPRLPRPRPRPPPIPRP | 0.978
22 | RRIRNRPPRLPRPRPRPLMVPRP | -0.254
23 | RRIRERPPRLPRPRPRPDHQPRP | -0.223
24 | RRIRGRPPRLPRPRPRPVHWPRP | 0.601
25 | RRIRHRPPRLPRPRPRPLKTPRP | 0.0116

Row | Sequence | shrunken log2 fold change
26 | RRIRPRPPRLPRPRPRPVVWPRP | 0.535
27 | RRIRFRPPRLPRPRPRPTRHPRP | 0.519
28 | RRIRTRPPRLPRPRPRPIDFPRP | 0.0107
29 | RRIRRRPPRLPRPRPRPHKCPRP | -0.346
30 | RRIRFRPPRLPRPRPRPRWLPRP | 0.269
31 | RRIRHRPPRLPRPRPRPNPEPRP | -0.00699
32 | RRIRPRPPRLPRPRPRPMQTPRP | 0.119
33 | RRIRCRPPRLPRPRPRPMKFPRP | -0.0717
34 | RRIRQRPPRLPRPRPRPQDKPRP | -0.802
35 | RRIRGRPPRLPRPRPRPFIVPRP | -0.00433
36 | RRIRQRPPRLPRPRPRPFQKPRP | -0.173
37 | RRIRNRPPRLPRPRPRPKNPPRP | 0.0494
38 | RRIRVRPPRLPRPRPRPAPVPRP | 0.349
39 | RRIRARPPRLPRPRPRPMGIPRP | -0.00146
40 | RRIRGRPPRLPRPRPRPIAVPRP | 0.892
41 | RRIRSRPPRLPRPRPRPPPNPRP | 0.707
42 | RRIRHRPPRLPRPRPRPQMRPRP | 0.209
43 | RRIRFRPPRLPRPRPRPCYGPRP | -0.0414
44 | RRIRKRPPRLPRPRPRPEDPPRP | 2.99
45 | RRIRFRPPRLPRPRPRPQNPPRP | -0.231
46 | RRIRTRPPRLPRPRPRPHLPPRP | 0.236
47 | RRIRKRPPRLPRPRPRPMNNPRP | -0.0152
48 | RRIRHRPPRLPRPRPRPKWPPRP | 0.0116
49 | RRIRNRPPRLPRPRPRPRNQPRP | -0.182
50 | RRIRYRPPRLPRPRPRPPEQPRP | 0.357

Row | Sequence | shrunken log2 fold change
51 | RRIRVRPPRLPRPRPRPMLIPRP | -0.0178
52 | RRIRHRPPRLPRPRPRPLCTPRP | -0.247
53 | RRIRERPPRLPRPRPRPCKMPRP | -0.427
54 | RRIRYRPPRLPRPRPRPNSMPRP | -1.77
55 | RRIRSRPPRLPRPRPRPKMHPRP | 0.157
56 | RRIRHRPPRLPRPRPRPDDPPRP | -0.0026
57 | RRIRLRPPRLPRPRPRPPHDPRP | 0.397
58 | RRIRPRPPRLPRPRPRPAFKPRP | 0.192
59 | RRIRMRPPRLPRPRPRPPSGPRP | 0.525
60 | RRIRWRPPRLPRPRPRPNVSPRP | -0.0556
61 | RRIRIRPPRLPRPRPRPEHVPRP | -0.0143
62 | RRIRERPPRLPRPRPRPRGWPRP | 0.917
63 | RRIRWRPPRLPRPRPRPFVIPRP | -0.396
64 | RRIRSRPPRLPRPRPRPRIMPRP | -0.105
65 | RRIRIRPPRLPRPRPRPQEHPRP | -0.0111
66 | RRIRARPPRLPRPRPRPNGRPRP | -0.11
67 | RRIRQRPPRLPRPRPRPEQYPRP | -0.0417
68 | RRIRNRPPRLPRPRPRPTKYPRP | -0.564
69 | RRIRQRPPRLPRPRPRPMLGPRP | 0.0371
70 | RRIRWRPPRLPRPRPRPSPAPRP | 0.348
71 | RRIRARPPRLPRPRPRPTDSPRP | 0.00832
72 | RRIRSRPPRLPRPRPRPMMGPRP | 0.0137
73 | RRIRARPPRLPRPRPRPRITPRP | 0.173
74 | RRIRSRPPRLPRPRPRPCAYPRP | -0.431
75 | RRIRDRPPRLPRPRPRPQAMPRP | 0.133

Row | Sequence | shrunken log2 fold change
76 | RRIRIRPPRLPRPRPRPVCWPRP | 0.32
77 | RRIRWRPPRLPRPRPRPEQQPRP | 1.39
78 | RRIRVRPPRLPRPRPRPIWCPRP | 0.0502
79 | RRIRHRPPRLPRPRPRPKGHPRP | -0.311
80 | RRIRERPPRLPRPRPRPYSAPRP | -0.269
81 | RRIRYRPPRLPRPRPRPGAVPRP | 0.929
82 | RRIRPRPPRLPRPRPRPWMPPRP | -0.00504
83 | RRIRPRPPRLPRPRPRPINTPRP | -0.844
84 | RRIRLRPPRLPRPRPRPVCFPRP | -0.059
85 | RRIRNRPPRLPRPRPRPMCFPRP | -0.114
86 | RRIRIRPPRLPRPRPRPNMYPRP | -0.59
87 | RRIRFRPPRLPRPRPRPLDRPRP | 0.163
88 | RRIRYRPPRLPRPRPRPKEIPRP | -0.0434
89 | RRIRDRPPRLPRPRPRPLWWPRP | 0.721
90 | RRIRRRPPRLPRPRPRPISCPRP | 0.00341
91 | RRIRCRPPRLPRPRPRPAKAPRP | 0.162
92 | RRIRCRPPRLPRPRPRPECIPRP | 0.0623
93 | RRIRDRPPRLPRPRPRPNPEPRP | 0.0935
94 | RRIRNRPPRLPRPRPRPYDEPRP | -0.0237
95 | RRIRPRPPRLPRPRPRPYDEPRP | -0.0606
96 | RRIRPRPPRLPRPRPRPCVGPRP | 0.267
97 | RRIRCRPPRLPRPRPRPMPKPRP | 0.0972
98 | RRIRMRPPRLPRPRPRPDIAPRP | 0.0562
99 | RRIRNRPPRLPRPRPRPEKTPRP | -0.0226
100 | RRIRDRPPRLPRPRPRPCHKPRP | -0.00188

Row | Sequence | shrunken log2 fold change
101 | RRIRARPPRLPRPRPRPCDCPRP | -0.21
102 | RRIRHRPPRLPRPRPRPANKPRP | -0.291
103 | RRIRRRPPRLPRPRPRPPRAPRP | 1.17
104 | RRIRIRPPRLPRPRPRPKCEPRP | 0.07
105 | RRIRERPPRLPRPRPRPVQRPRP | 0.0476
106 | RRIRIRPPRLPRPRPRPRWTPRP | 0.0809
107 | RRIRRRPPRLPRPRPRPWSCPRP | 0.0681
108 | RRIRSRPPRLPRPRPRPNQHPRP | -0.201
109 | RRIRIRPPRLPRPRPRPIWLPRP | -0.11
110 | RRIRWRPPRLPRPRPRPATPPRP | 0.755
111 | RRIRMRPPRLPRPRPRPDKAPRP | -0.041
112 | RRIRSRPPRLPRPRPRPLFIPRP | -0.74
113 | RRIRMRPPRLPRPRPRPDCSPRP | 0.172
114 | RRIRCRPPRLPRPRPRPQLFPRP | -0.242
115 | RRIRRRPPRLPRPRPRPGGDPRP | 0.48
116 | RRIRGRPPRLPRPRPRPPGTPRP | 0.982
117 | RRIRSRPPRLPRPRPRPVLAPRP | 0.557
118 | RRIRGRPPRLPRPRPRPLDNPRP | 0.244
119 | RRIRFRPPRLPRPRPRPLDHPRP | -0.359
120 | RRIRVRPPRLPRPRPRPRETPRP | 0.513
121 | RRIRCRPPRLPRPRPRPSWSPRP | -0.263
122 | RRIRPRPPRLPRPRPRPRDFPRP | 0.317
123 | RRIRFRPPRLPRPRPRPDYEPRP | -0.407
124 | RRIRFRPPRLPRPRPRPSEFPRP | -0.301
125 | RRIRVRPPRLPRPRPRPGQDPRP | -0.41

Row | Sequence | shrunken log2 fold change
126 | RRIRMRPPRLPRPRPRPKVYPRP | 0.0391
127 | RRIRLRPPRLPRPRPRPCDQPRP | -0.016
128 | RRIRARPPRLPRPRPRPLDNPRP | 0.151
129 | RRIRTRPPRLPRPRPRPCHRPRP | -0.000687
130 | RRIRGRPPRLPRPRPRPRMGPRP | 0.868
131 | RRIRNRPPRLPRPRPRPQCEPRP | 0.0399
132 | RRIRARPPRLPRPRPRPPDYPRP | 0.406
133 | RRIRPRPPRLPRPRPRPLYVPRP | -0.433
134 | RRIRDRPPRLPRPRPRPKNKPRP | -0.314
135 | RRIRCRPPRLPRPRPRPCNTPRP | -0.306
136 | RRIRPRPPRLPRPRPRPLLFPRP | 0.0745
137 | RRIRNRPPRLPRPRPRPWIFPRP | -0.201
138 | RRIRDRPPRLPRPRPRPDVTPRP | 0.149
139 | RRIRRRPPRLPRPRPRPDRSPRP | -0.0169
140 | RRIRLRPPRLPRPRPRPENFPRP | 0.0173
141 | RRIRDRPPRLPRPRPRPHCSPRP | 0.0218
142 | RRIRARPPRLPRPRPRPPYYPRP | 0.0635
143 | RRIRSRPPRLPRPRPRPKCEPRP | -0.125
144 | RRIRERPPRLPRPRPRPTVIPRP | -0.0209
145 | RRIRDRPPRLPRPRPRPTIIPRP | -0.127
146 | RRIRTRPPRLPRPRPRPNPLPRP | -0.216
147 | RRIRRRPPRLPRPRPRPHVFPRP | 2.42
148 | RRIRKRPPRLPRPRPRPLWYPRP | -0.511
149 | RRIRKRPPRLPRPRPRPHHNPRP | -0.421
150 | RRIRQRPPRLPRPRPRPPGWPRP | -0.0951
